Target: T1, IgSF4 (Immunoglobulin superfamily member 4), human, as expressed by human cell lines (human, UniProt Q9BY67 45-442)
T1 construct: also called BL2; ST17
T1 sequence: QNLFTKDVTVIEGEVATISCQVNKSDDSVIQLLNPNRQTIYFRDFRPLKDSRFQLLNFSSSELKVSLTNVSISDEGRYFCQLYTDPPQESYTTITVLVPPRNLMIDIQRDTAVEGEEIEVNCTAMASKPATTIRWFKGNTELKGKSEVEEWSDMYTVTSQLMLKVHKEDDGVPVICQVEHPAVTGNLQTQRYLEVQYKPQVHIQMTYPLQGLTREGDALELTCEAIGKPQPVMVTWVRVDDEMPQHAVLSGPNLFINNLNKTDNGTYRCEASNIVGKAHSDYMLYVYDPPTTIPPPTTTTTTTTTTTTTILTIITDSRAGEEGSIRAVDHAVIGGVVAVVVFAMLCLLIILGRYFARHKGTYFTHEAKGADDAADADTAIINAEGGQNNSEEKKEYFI
Test: statement in the ADCC experiment on VMRC-LCD target cells
Experimental: As target cells to be used, lung cancer derived cultured cells VMRC-LCD (provided from Japanese Collection of Research Bioresources) was grown in a liquid culture medium 1 (Minimum Essential Medium Alpha Medium: Invitrogen, 10% (v/v) fetal bovine serum: Equitic-Bio, 1% (v/v) Penicillin-Streptomycin Solution: Sigma-Aldrich) on a culture dish having a diameter of 150 mm. The liquid culture medium was removed, cells were washed with 10 ml of PBS twice, and liquid was removed. To this, 5 ml of 4% (w/v) collagenase Type IV (Invitrogen) was added and maintained at 37° C. for 10 minutes, thereby peeling the cells off from the culture dish.
Into a U-bottom 96-well multiplate (Becton Dickinson), 66 μl/well of target cells (2×10⁴ cells) were placed. To this, 66 μl of IgG antibody (3 μg/ml) was added, and then 66 μl of peripheral blood mononuclear leukocyte suspension (7.5×10⁵ cells) was added. The E/T ratio (ratio of the effector cells and target cells) was made to be 20. In order to prompt to associate cells, centrifugation (60×g, 4° C., 5 minutes) was carried out so as to precipitate cells in the bottom. Then, the cells were incubated for 240 minutes in a culture device under conditions of 37° C. and 5% CO₂, and thus the ADCC reaction was induced. Each antibody sample was prepared as a CTM solution. […] Furthermore, in each experiment group, three wells were used.

B1: IgG type antibody 035-029 (antibody, V domains shown)
VH: EVQLVESGGGLVKPGGSLRLSCAASGFTFSSYAMSWVRQAPGKGLEWVSAISGSGGSTYYADSVKGRFTISRDNSKNTLYLQMNSLRAEDTALYYCARDNWYFDLWGRGTLVTVSS
VL: SSELTQDPAVSVALGQTVRITCQGDSLRSYYASWYQQKPGQAPVLVIYGKNNRLSGIPDRFSGSSSGNTASLTITGAQAEDEADYYCNSRDSSGNHVVFGGGTKLTVLG
notes: also called IgG antibody clone 035-029; human IgG type antibody clone recognizing IgSF4
binding result: binds
